Assay results published in PMC6984350 (Structure (London, England : 1993), 2018).

T1: Filamin A domains 4-6, wild type (human, UniProt P21333 571-861)
T1 sequence (looked up): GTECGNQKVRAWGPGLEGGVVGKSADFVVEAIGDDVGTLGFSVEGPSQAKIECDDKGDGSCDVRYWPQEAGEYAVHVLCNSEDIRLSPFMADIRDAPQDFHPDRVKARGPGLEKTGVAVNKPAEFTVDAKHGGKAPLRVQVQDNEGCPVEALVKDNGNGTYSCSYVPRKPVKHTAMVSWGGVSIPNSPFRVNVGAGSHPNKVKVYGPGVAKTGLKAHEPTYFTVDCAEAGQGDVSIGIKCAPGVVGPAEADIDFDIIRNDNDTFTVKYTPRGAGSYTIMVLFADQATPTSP


Target: T1, Filamin A domains 4-6, wild type
Test: SPR

Binder	Kd [µM]
PTPN12 C-terminal domain (600–780) (domain or fragment, UniProt Q05209 600-780, looked up) PLHSDDSDSDERNSDGAVTQNKTNISTASATVSAATSTESISTRKVLPMSIARHNIAGTTHSGAEKDVDVSEDSPPPLPERTPESFVLASEHNTPVRSEWSELQSQERSEQKKSEGLITSENEKCDHPAGGIHYEMCIECPPTFSDKREQISENPTEATDIGFGNRCGKPKGPRDPPSEWT	~0.33
PLHSDDSDSDERNSDGAVTQNKTNISTASATVSAA (domain or fragment, UniProt Q05209 600-634, looked up) [PTPN12–600-634]	> 10000
PTPN12 600–673 (domain or fragment, UniProt Q05209 600-673, looked up) PLHSDDSDSDERNSDGAVTQNKTNISTASATVSAATSTESISTRKVLPMSIARHNIAGTTHSGAEKDVDVSEDS	> 10000

Binders with a lower Kd, results first:

Kd [µM]	Binder
0.32	PTPN12–600-709 (domain or fragment, UniProt Q05209 600-709, looked up) PLHSDDSDSDERNSDGAVTQNKTNISTASATVSAATSTESISTRKVLPMSIARHNIAGTTHSGAEKDVDVSEDSPPPLPERTPESFVLASEHNTPVRSEWSELQSQERSE
0.27	PTPN12 634–709 (domain or fragment, UniProt Q05209 634-709, looked up) ATSTESISTRKVLPMSIARHNIAGTTHSGAEKDVDVSEDSPPPLPERTPESFVLASEHNTPVRSEWSELQSQERSE
